According to US20100055125A1:

Target: clotting factor VIII (human) (UniProt P00451)
Assay: cell-based or functional assay

Chain of UniProt P00451 (P00451 20-2351): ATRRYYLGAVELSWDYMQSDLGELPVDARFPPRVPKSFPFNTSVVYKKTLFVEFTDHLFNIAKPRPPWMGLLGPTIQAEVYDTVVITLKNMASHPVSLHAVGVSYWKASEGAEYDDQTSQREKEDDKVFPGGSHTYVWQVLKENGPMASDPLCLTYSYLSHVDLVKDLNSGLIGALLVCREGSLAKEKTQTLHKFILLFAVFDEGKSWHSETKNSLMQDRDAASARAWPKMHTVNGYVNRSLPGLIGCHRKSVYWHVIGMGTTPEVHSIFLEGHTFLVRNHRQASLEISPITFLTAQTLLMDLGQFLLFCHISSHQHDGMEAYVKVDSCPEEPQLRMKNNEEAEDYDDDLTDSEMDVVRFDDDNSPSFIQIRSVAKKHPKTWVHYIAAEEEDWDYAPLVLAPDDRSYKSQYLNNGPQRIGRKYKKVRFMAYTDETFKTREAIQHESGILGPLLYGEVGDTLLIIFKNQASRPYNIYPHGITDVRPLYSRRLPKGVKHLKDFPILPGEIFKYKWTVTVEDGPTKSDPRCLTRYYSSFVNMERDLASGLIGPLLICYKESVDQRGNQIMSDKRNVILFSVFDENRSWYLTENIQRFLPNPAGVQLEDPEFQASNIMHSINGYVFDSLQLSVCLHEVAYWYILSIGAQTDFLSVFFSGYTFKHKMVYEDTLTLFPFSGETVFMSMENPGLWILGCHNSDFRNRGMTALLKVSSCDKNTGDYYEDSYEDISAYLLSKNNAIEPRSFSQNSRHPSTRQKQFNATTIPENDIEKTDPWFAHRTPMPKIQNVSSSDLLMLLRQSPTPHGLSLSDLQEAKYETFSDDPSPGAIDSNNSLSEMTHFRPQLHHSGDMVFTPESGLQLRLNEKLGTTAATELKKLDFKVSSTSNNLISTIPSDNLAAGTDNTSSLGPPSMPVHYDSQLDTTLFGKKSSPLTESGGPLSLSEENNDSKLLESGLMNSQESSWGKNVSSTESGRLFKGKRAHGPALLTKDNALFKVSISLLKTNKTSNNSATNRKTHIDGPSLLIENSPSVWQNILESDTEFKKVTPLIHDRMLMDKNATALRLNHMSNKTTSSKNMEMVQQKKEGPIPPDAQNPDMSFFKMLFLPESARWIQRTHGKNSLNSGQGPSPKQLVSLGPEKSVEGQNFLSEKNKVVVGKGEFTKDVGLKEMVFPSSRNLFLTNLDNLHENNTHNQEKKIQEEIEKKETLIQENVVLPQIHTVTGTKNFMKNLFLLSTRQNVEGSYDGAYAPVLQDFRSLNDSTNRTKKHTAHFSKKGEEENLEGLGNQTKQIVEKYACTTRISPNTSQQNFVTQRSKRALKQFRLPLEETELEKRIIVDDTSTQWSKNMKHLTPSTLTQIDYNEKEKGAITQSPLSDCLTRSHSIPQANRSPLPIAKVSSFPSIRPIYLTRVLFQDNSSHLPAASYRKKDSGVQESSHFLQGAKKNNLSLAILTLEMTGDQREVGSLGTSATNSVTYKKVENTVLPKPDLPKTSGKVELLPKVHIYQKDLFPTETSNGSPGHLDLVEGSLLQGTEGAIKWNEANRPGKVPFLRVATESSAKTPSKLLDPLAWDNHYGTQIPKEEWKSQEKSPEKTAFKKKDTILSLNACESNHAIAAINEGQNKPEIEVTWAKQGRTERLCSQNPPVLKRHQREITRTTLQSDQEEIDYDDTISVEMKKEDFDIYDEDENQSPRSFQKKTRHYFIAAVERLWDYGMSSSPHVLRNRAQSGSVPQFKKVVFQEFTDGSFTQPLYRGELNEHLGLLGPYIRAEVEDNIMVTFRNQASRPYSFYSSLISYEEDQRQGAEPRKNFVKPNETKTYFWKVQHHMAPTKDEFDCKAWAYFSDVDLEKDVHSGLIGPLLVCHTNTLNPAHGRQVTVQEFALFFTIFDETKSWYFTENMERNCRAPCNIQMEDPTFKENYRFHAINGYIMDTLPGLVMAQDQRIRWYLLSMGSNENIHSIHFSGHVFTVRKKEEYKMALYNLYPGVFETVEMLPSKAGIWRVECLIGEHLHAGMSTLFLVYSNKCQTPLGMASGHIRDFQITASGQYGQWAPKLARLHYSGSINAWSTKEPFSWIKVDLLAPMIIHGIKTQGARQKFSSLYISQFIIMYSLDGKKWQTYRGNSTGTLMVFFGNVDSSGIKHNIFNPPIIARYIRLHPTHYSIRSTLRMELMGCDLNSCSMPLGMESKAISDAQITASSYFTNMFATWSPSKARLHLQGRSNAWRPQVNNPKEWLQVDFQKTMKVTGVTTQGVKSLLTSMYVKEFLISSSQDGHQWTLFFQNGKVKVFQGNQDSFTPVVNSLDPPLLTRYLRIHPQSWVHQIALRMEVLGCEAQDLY

Substance: murine monoclonal anti-FVIII antibody ESH8 (American Diagnostica)
- FVIII activity of normal plasma after adding ESH8 (% of its initial activity): 32.6
- FVIII activity of normal plasma after adding ESH8 (% of the initial activity): 23.5
